Results: article PMC3578790, “Tight Interconnection and Multi-Level Control of Arabidopsis MYB44 in MAPK Cascade Signalling”

Biological target: MYB44 (Arabidopsis thaliana? (Arabidopsis, …, UniProt Q9FDW1 1-305))
Assay: EMSA; no competitor; unlabelled MBSII 100x blocks the shift; unchanged with GST-MPK3 and/or GST-MKK4, with or without 0.5 mM ATP; 10 mM Tris pH 8.0, 5 mM MgCl2, 100 mM KCl, 0.02% Triton X-100, 0.1 mg/ml BSA, 0.25% Tween, 2.5 mM DTT, 3 ng/ul poly(dIdC); 30 min room temperature; 5% PAGE in 0.5x TBE or TAE (TAE main) at 4 C
Details: protein: recombinant; label: 5' Dy782 (Methods; called IRDye in Results); (only one strand printed)

Chain of MYB44 (Arabidopsis thaliana? (Q9FDW1 whole entry): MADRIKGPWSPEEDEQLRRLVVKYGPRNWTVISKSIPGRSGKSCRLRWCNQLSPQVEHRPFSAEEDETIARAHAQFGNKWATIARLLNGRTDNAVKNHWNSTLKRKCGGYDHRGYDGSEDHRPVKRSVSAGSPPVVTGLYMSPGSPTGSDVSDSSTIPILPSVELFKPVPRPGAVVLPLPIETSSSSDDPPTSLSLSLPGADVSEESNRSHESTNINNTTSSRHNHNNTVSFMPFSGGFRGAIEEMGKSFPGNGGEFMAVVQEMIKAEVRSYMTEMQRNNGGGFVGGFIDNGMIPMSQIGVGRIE

B1: MBSII (dsDNA)
DNA 1: AGCTTCAAAAGTTAGTTACG
DNA 2: CGTAACTAACTTTTGAAGCT
Question: Does B1 bind?
Answer: binds
